Assay [1] deals with recombinant human latent myostatin (human, UniProt O14793 24-375, biotinylated (in the Octet pH assay only)). In words: cell-based or functional assay.
Assay [2] deals with T1, human pro-myostatin (human, UniProt O14793 24-375, biotinylated (in the SPR assay)). In words: cell-based or functional assay.
Another assay deals with T2, murine pro-myostatin (mouse, UniProt O08689 25-376, biotinylated (in the SPR assay)).
T2 construct: also called proGDF8 (mouse); mouse pro-myostatin
In words: SPR Biacore 8K, biotin-antigen captured.

Assay [3] deals with T1, human pro-myostatin. Put plainly: SPR Biacore 8K, biotin-antigen captured.
The next assay addresses T3, cyno pro-myostatin (cynomolgus monkey, Biotinylated for capture in the SPR assay (site not stated). The native form is a disulfide-linked homodimer, partly furin-cleaved; one chain is given.).
T3 construct: also called proGDF8 (cynomolgus); cynomolgus monkey pro-myostatin
In words: SPR Biacore 8K, biotin-antigen captured.

Another assay has as its target human GDF-11 (human, UniProt O95390 299-407, limits assumed). In words: plate binding assay, OD 450 nm, one antibody concentration that is not given, on Hu-GDF-11 (method not described in the text).
A further assay addresses mouse GDF-11 (mouse, UniProt Q9Z1W4 297-405, limits assumed). In words: plate binding assay, OD 450 nm, one antibody concentration that is not given, on Mu-GDF-11 (method not described in the text).

Sequence of human GDF-11 (O95390 299-407 limits assumed): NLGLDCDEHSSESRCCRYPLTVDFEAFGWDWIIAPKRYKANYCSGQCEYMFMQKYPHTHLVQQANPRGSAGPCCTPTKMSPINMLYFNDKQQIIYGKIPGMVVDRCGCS
Sequence of mouse GDF-11 (Q9Z1W4 297-405 limits assumed): as the sequence (O95390 299-407 limits assumed) above

B1: Ab128 (antibody, human IgG4 S228P, kappa, V domains shown)
VH: EVQLVESGGGLVQPGGSLRLSCTASGFTLSSYSMDWVRQAPGKGLEWVSYITGSGDTTYYADSVKGRFTISRDNAKNTLYLQMNSLRAEDTAVYYCARGFGWISGWAEDYFDYWGQGTLVTVSS
VL: DIQMTQSPSSLSASVGDRVTITCQASQSVYSYLNWYQQKPGKAPKLLIYGASRLEGGVPSRFSGSGSGTDFTFTISSLQPEDIATYYCQQHSTDQRTFGGGTKVEIKR
For the molecule B1, the “IC50 (nM) Latent + mTLL2” value in assay [1] stood at 1.03 nM. Moreover, the “IC50 (nM) Pro + Furin” value with human pro-myostatin [2] is 0.774 nM. The Kd was 0.716 nM in the assay with murine pro-myostatin, 0.365 nM with human pro-myostatin [3] and 0.814 nM with cyno pro-myostatin. Moreover, the koff with murine pro-myostatin came out at 0.000655 s⁻¹; with human pro-myostatin [3], 0.000463 s⁻¹; in the assay with cyno pro-myostatin, 0.000736 s⁻¹. The kon stood at 914000 M⁻¹ s⁻¹ in the assay with murine pro-myostatin, 1.27e+06 M⁻¹ s⁻¹ in the assay with human pro-myostatin [3] and 905000 M⁻¹ s⁻¹ with cyno pro-myostatin. Besides, the binding result in the assay with human GDF-11 and with mouse GDF-11 was “no binding” in each case.

B2: Ab124 (antibody, human IgG4 S228P, kappa, V domains shown)
VH: QVQLQESGPGLVKPSQTLSLTCTVSGGSISSSPYSWSWIRQPPGKGLEWIGYVDLAGSTDYNPSLKSRVTMSVDTSKNQFSLKVNSVTAADTAVYYCARALSSRSSEWLLDQYTMDVWGQGTTVTVSS
VL: EIVMTQSPATLSLSPGERATLSCRASQSIGINLAWYQQKPGQAPRLLIYGVSNRATGIPARFSGSGSGTDFTLTISSLEPEDFAVYYCQQYGTARLTFGGGTKVEIKR
Consider B2, for which the “IC50 (nM) Latent + mTLL2” value in assay [1] was 1.43 nM. In the assay with murine pro-myostatin, this molecule registered an equilibrium dissociation constant (Kd) of 3.26 nM, a koff of 0.000454 s⁻¹ and a kon of 139000 M⁻¹ s⁻¹.

B3: Ab101 (antibody, human IgG4 S228P, kappa, V domains shown)
VH: EVQLVESGGGLVQPGGSLRLSCAASGSAFSSYGMSWVRQAPGKGLELVASINSNGGSTYYPDSVKGRFTISRDNAKNSLYLQMNSLRAEDTAVYYCARDLLVRFLEWSHYYGMDVWGQGTTVTVSS
VL: DIVMTQSPLSLPVTPGEPASISCRSSQSLLHSSGHNFLHWYLQKPGQSPQLLIYEVSNRVSGVPDRFSGSGSGTDFTLKISRVEAEDVGVYYCMQQTQYPPTFGGGTKVEIKR
In the case of B3, the “IC50 (nM) Latent + mTLL2” value in assay [1] amounted to 0.128 nM. The “IC50 (nM) Pro + Furin” value with human pro-myostatin [2] came out at 0.251 nM. In the assay with murine pro-myostatin, the affinity, expressed as Kd, was 0.083 nM; the koff was determined as 0.00036 s⁻¹; the kon is 4.34e+06 M⁻¹ s⁻¹. Further, in the assay with human pro-myostatin [3], the Kd stood at 0.078 nM, the koff came to 0.000339 s⁻¹ and the kon amounted to 4.37e+06 M⁻¹ s⁻¹. Moreover, in the assay with cyno pro-myostatin, the Kd was determined as 0.065 nM, the koff is 0.000317 s⁻¹ and the kon was 4.84e+06 M⁻¹ s⁻¹.

B4: Ab134 (antibody, human IgG4 S228P, kappa, V domains shown)
VH: EVQLVESGGGLVQPGGSLRLSCAASGSAFSSYGMSWVRQAPGKGLELVASINSNGGSTYYPDSVKGRFTISRDNAKNSLYLQMNSLRAEDTAVYYCARDLLVEFLKWSHYYGMDVWGQGTTVTVSS
VL: DIVMTQSPLSLPVTPGEPASISCRSSQSLLHSSGHNFLHWYLQKPGQSPQLLIYEVSNRVSGVPDRFSGSGSGTDFTLKISRVEAEDVGVYYCMQQTQYPPTFGGGTKVEIKR
As to B4, the “IC50 (nM) Latent + mTLL2” value in assay [1] was found to be 0.631 nM.

B5: Ab108 (antibody, human IgG4 S228P, kappa, V domains shown)
VH: EVQLVESGGGLVQPGGSLRLSCAASGSAFSSYGMSWVRQAPGKGLELVASINSNGGSTYYPDSVKGRFTISRDNAKNSLYLQMNSLRAEDTAVYYCARDLLVGFLQWSHYYGMDVWGQGTTVTVSS
VL: DIVMTQSPLSLPVTPGEPASISCRSSQSLLHSSGHNFLHWYLQKPGQSPQLLIYEVSNRVSGVPDRFSGSGSGTDFTLKISRVEAEDVGVYYCMQQTQYPPTFGGGTKVEIKR
In the case of B5, the “IC50 (nM) Latent + mTLL2” value in assay [1] is 0.237 nM. The “IC50 (nM) Pro + Furin” value with human pro-myostatin [2] came out at 0.27 nM. Moreover, in the assay with murine pro-myostatin, binding was characterised by a dissociation constant (Kd) of 0.218 nM, the koff worked out at 0.00183 s⁻¹ and the kon worked out at 8.42e+06 M⁻¹ s⁻¹. Moreover, in the assay with human pro-myostatin [3], binding was put at a Kd of 0.177 nM, the off-rate constant (koff) stood at 0.00105 s⁻¹ and the kon is 5.92e+06 M⁻¹ s⁻¹. In the assay with cyno pro-myostatin, the affinity, expressed as Kd, was 0.159 nM; the koff turned out to be 0.00102 s⁻¹; the kon is 6.39e+06 M⁻¹ s⁻¹.

B6: Ab103 (antibody, human IgG4 S228P, kappa, V domains shown)
VH: EVQLVESGGGLVQPGGSLRLSCAASGYTFSSYGMSWVRQAPGKGLELVASITGDAGRTYYPDSVKGRFTISRDNAKNSLYLQMNSLRAEDTAVYYCARDTLVRFLEWSHYYGMDVWGQGTTVTVSS
VL: DIVMTQSPLSLPVTPGEPASISCRSSQSLLHSSGHNFLHWYLQKPGQSPQLLIYEVSNRVSGVPDRFSGSGSGTDFTLKISRVEAEDVGVYYCMQQTQYPPTFGGGTKVEIKR
On to B6, for which the “IC50 (nM) Latent + mTLL2” value in assay [1] turned out to be 0.506 nM. Moreover, in the assay with human pro-myostatin [2], the “IC50 (nM) Pro + Furin” value is 0.413 nM. In the assay with murine pro-myostatin, binding was put at a Kd of 0.379 nM, the koff stood at 0.00221 s⁻¹ and the kon turned out to be 5.83e+06 M⁻¹ s⁻¹. Further, in the assay with human pro-myostatin [3], the Kd was 0.261 nM, the off-rate constant (koff) was 0.00151 s⁻¹ and the kon came out at 5.78e+06 M⁻¹ s⁻¹. Also, in the assay with cyno pro-myostatin, the Kd was 0.252 nM, the off-rate (koff) turned out to be 0.00154 s⁻¹ and the on-rate (kon) was 6.09e+06 M⁻¹ s⁻¹.

B7: Ab107 (antibody, human IgG4 S228P, kappa, V domains shown)
VH: EVQLVESGGGLVQPGGSLRLSCAASGSAFSSYGMSWVRQAPGKGLELVASINSNGGSTYYPDSVKGRFTISRDNAKNSLYLQMNSLRAEDTAVYYCARDQLVRFLEWSHYYGMDVWGQGTTVTVSS
VL: DIVMTQSPLSLPVTPGEPASISCRSSQSLLHSSGHNFLHWYLQKPGQSPQLLIYAGSNRPSGVPDRFSGSGSGTDFTLKISRVEAEDVGVYYCAHATQLPHTFGGGTKVEIKR
Regarding B7, the “IC50 (nM) Latent + mTLL2” value in assay [1] came to 0.135 nM. Besides, in the assay with human pro-myostatin [2], the “IC50 (nM) Pro + Furin” value was determined as 0.195 nM. Further, the Kd came out at 0.057 nM with murine pro-myostatin, 0.06 nM in the assay with human pro-myostatin [3] and 0.054 nM with cyno pro-myostatin. Also, the koff with murine pro-myostatin was 0.000455 s⁻¹; with human pro-myostatin [3], 0.000319 s⁻¹; with cyno pro-myostatin it was 0.000316 s⁻¹. In addition, the figures for the kon with murine pro-myostatin, with human pro-myostatin [3] and with cyno pro-myostatin were 8.04e+06 M⁻¹ s⁻¹, 5.34e+06 M⁻¹ s⁻¹ and 5.85e+06 M⁻¹ s⁻¹, respectively.

B8: Ab114 (antibody, human IgG4 S228P, kappa, V domains shown)
VH: QVQLVQSGAEVKKPGASVKVSCKVSGGTFRSYTIHWVRQAPGKGLEWMGGMNPSSGHTIYAQKFQGRVTMTEDTSTDTAYMELSSLKSEDTAVYYCARGLDYGEGYYYYGMDVWGQGTTVTVSS
VL: DIQMTQSPSSVSASVGDRVTITCRASQGISESLAWYQQKPGKAPKLLIYSASSLESGVPSRFSGSGSGTDFTLTISSLQPEDFANYYCQQGYSSPPYTFGGGTKVEIKR
Turning to B8, the “IC50 (nM) Latent + mTLL2” value in assay [1] amounted to 3.3 nM. In the assay with human pro-myostatin [2], the “IC50 (nM) Pro + Furin” value amounted to 2.8 nM. The Kd in the assay with murine pro-myostatin turned out to be 6.29 nM; in the assay with human pro-myostatin [3], 1.74 nM; in the assay with cyno pro-myostatin, 2.6 nM. In addition, the results for the koff in the assay with murine pro-myostatin, in the assay with human pro-myostatin [3] and with cyno pro-myostatin were 0.0208 s⁻¹, 0.00735 s⁻¹ and 0.00908 s⁻¹, respectively. Besides, the kon in the assay with murine pro-myostatin was found to be 3.31e+06 M⁻¹ s⁻¹; in the assay with human pro-myostatin [3], 4.23e+06 M⁻¹ s⁻¹; with cyno pro-myostatin it was 3.49e+06 M⁻¹ s⁻¹. The binding result with human GDF-11 and in the assay with mouse GDF-11 was “no binding” in each case.

B9: Ab115 (antibody, human IgG4 S228P, kappa, V domains shown)
VH: QVQLVQSGAEVKKPGASVKVSCKVSGYAFTNYNIHWVRQAPGKGLEWMGGINPRTGGTIYAQKFQGRVTMTEDTSTDTAYMELSSLKSEDTAVYYCAKDIYTGVAVAGSGMDYWGQGTLVTVSS
VL: DIQMTQSPSSVSASVGDRVTITCRASQGISTHLAWYQQKPGKAPKLLIYGASNLESGVPSRFSGSGSGTDFTLTISSLQPEDFANYYCQQANSFPWTFGGGTKVEIKR
For the molecule B9, in assay [1], the “IC50 (nM) Latent + mTLL2” value stood at 2.94 nM. Besides, in the assay with human pro-myostatin [2], the “IC50 (nM) Pro + Furin” value is 6.01 nM. Also, the Kd with murine pro-myostatin amounted to 3.05 nM; in the assay with human pro-myostatin [3] it was 3.04 nM; with cyno pro-myostatin, 3.13 nM. Moreover, the off-rate constant (koff) in the assay with murine pro-myostatin came to 0.00137 s⁻¹; with human pro-myostatin [3], 0.00123 s⁻¹; with cyno pro-myostatin, 0.00139 s⁻¹. Besides, the kon with murine pro-myostatin is 450000 M⁻¹ s⁻¹; with human pro-myostatin [3], 406000 M⁻¹ s⁻¹; with cyno pro-myostatin, 443000 M⁻¹ s⁻¹. Besides, the binding result with human GDF-11 and with mouse GDF-11 was “no binding” in each case.

B10: Ab129 (antibody, human IgG4 S228P, kappa, V domains shown)
VH: QVQLVQSGAEVKKPGASVKVSCKVSGFNYPRSAIHWVRQAPGKGLEWMGGINPSGEATIYAQKFQGRVTMTEDTSTDTAYMELSSLKSEDTAVYYCARDSSPQWLVTAGVYFYGMDVWGQGTTVTVSS
VL: DIQMTQSPSSVSASVGDRVTITCRASQSISNWLAWYQQKPGKAPKLLIYHASTLQSGVPSRFSGSGSGTDFTLTISSLQPEDFANYYCQQYSSTPWTFGGGTKVEIKR
As for B10, the “IC50 (nM) Latent + mTLL2” value in assay [1] is 3.89 nM. Moreover, the “IC50 (nM) Pro + Furin” value with human pro-myostatin [2] worked out at 4.31 nM. In the assay with murine pro-myostatin, this molecule displayed a Kd of 4.24 nM, a koff of 0.000496 s⁻¹ and a kon of 117000 M⁻¹ s⁻¹. In the assay with human pro-myostatin [3], this molecule had an equilibrium dissociation constant (Kd) of 2.2 nM, a koff of 0.000307 s⁻¹ and a kon of 140000 M⁻¹ s⁻¹. In the assay with cyno pro-myostatin, this molecule came in with a Kd of 1.3 nM, a koff of 0.000534 s⁻¹ and a kon of 411000 M⁻¹ s⁻¹.

The values above are taken from patent US20260209325A1 (SCHOLAR ROCK, published 2026).
